In US9365836B2, “Glycosyltransferase gene and use thereof” (SUNTORY HOLDINGS LIMITED, priority 2011, dated 2016):

How the values were obtained:
Format in all cases: biochemical
[1] = Determination of enzyme activity of His-Tag-purified NmGT3 and NmGT4 protein solutions (HPLC); conditions: for product biosynthesized from apigenin 7-glucoside: substrate 50 ng/μl apigenin 7-glucoside, same condition; for product biosynthesized from apigenin: substrate 500 ng/μl apigenin, UDP-glucose, 30° C., 20 minutes; for product biosynthesized from apigenin 4′-glucoside: substrate apigenin 4′-glucoside, same condition (not shown)
Protocol: The Escherichia coli strain BL2 in which pET-NmGT3 or pET-NmGT4 described in Example 5 was introduced was cultured, using the Overnight Express Autoinduction System 1 (Novagen) according to a protocol recommended by the manufacturer. With 8 ml of the culture liquid prepared, the transformed Escherichia coli was cultured at 37° C. (about 4 hours) until the OD600 value reached 0.5. To this Escherichia coli solution as the preculture, 200 ml of the culture liquid was added and then subjected to the main culture overnight at 25° C.
The overnight-cultured Escherichia coli solution was centrifuged (1000×g, 4° C., 10 minutes), and the cells collected were suspended in 20 ml of a buffer (composition: NaCl: 0.5 M, Tris HCl (pH 7.9): 20 mM, imidazole: 5 mM, amidinophenyl methanesulfonyl fluoride hydrochloride (APMSF): 10 μM), and Escherichia coli was disrupted by sonication. The cells were then centrifuged (1400×g, 4° C., 20 minutes), and the supernatant was collected. The supernatant was passed through a 0.45 μm filter to His-Tag-purify using the Profinia (Bio-Rad) according to a protocol recommended by the manufacturer. The purified protein solution thus obtained was centrifuged (7500×g, 4° C., 15 minutes) using the Centrifugal filters (Ultracel-10K) (Amicon Ultra), and the concentrated protein solution was termed as “NmGT3 protein solution” and “NmGT4 protein solution”. For centrifugation, the Avanti HP-26 XP (rotor: JA-2) was used (BECKMAN COULTER).
(§1) 20 μl of the protein solution, 20 μl of 5 mM UDP-glucose, 20 μl of 1M Tris HCl (pH 7.5), and 1 μl of 500 ng/μl apigenin were mixed and prepared on ice to 200 μl in water, and the reaction mixture obtained was maintained at 30° C. for 20 minutes. Subsequently, 200 μl of the stopping buffer (a 90% acetonitrile aqueous solution containing 0.1% TFA) was added to stop the reaction, and analyzed with a high performance liquid chromatography (Prominence (Shimadzu)). The detector used is Shimadzu PDA SPD-M10AVP, and the flavone was detected at 330 nm. The column used is Shim-Pack ODS 150 mm×4.6 mm (Shimadzu). In elution, solution A (a 0.1% TFA aqueous solution) and solution B (a 90% methanol aqueous solution containing 0.1% TFA) were used. A linear gradient from a 8:2 mixture of the two solutions to a 3:7 mixture over 10 minutes and then a 3:7 mixture over 6 minutes were used in elution. The flow rate was set at 0.6 ml/minute.

[2] = Reactivity to various flavonoid compounds and betanidine (FIG. 13)
[3] = Determination of enzyme activity of candidate glycosyltransferases, crude enzyme from Escherichia coli (HPLC); conditions: crude enzyme solution, substrate apigenin, UDP-glucose, 30° C., 1 hour
Protocol: pET-NmGT0 through pET-NmGT9 were introduced into Escherichia coli strain BL2 using the One Shot BL21 (DE3) (Invitrogen) according to a protocol recommended by the manufacturer to obtain transformed Escherichia coli. The Escherichia coli was cultured, using the Overnight Express Autoinduction System 1 (Novagen) according to a protocol recommended by the manufacturer. With 2 ml of the culture liquid prepared, the transformed Escherichia coli was cultured at 37° C. (about 4 hours) until the OD600 value reached 0.5. To this Escherichia coli solution as the preculture, 50 ml of the culture liquid was added and then subjected to the main culture overnight at 27° C. […]
80 μl of the crude enzyme solution, 20 μl of 5 mM UDP-glucose, 20 μl of 1M Tris HCl (pH 7.5), and 1 μl of 500 ng/μl apigenin were prepared on ice to 200 μl in water, and the reaction mixture obtained was maintained at 30° C. for 1 hour. Subsequently, 200 μl of the stopping buffer (a 90% acetonitrile aqueous solution containing 0.1% TFA) was added to stop the reaction, and analyzed with a high performance liquid chromatography (Prominence (Shimadzu)). The detector used is Shimadzu PDA SPD-M10AVP, and the flavone was detected at 330 nm. […]

[4] = Determination of enzyme activity of His-Tag-purified SuGT protein solutions from Salvia uliginosa (HPLC)
Protocol: Escherichia coli expression constructs (pET-SuGT2, 5, 10) were created in a manner similar to that described in Example 5.
In a manner similar to that described in Example 5, “SuGT2 protein solution”, “SuGT5 protein solution” and “SuGT10 protein solution” were prepared.
as §1, with “20 μl of the protein solution, 20 μl of 5 mM UDP-glucose, 20 μl of 1M Tris HCl (pH 7.5), and 1 μl of 500 ng/μl apigenin were mixed and prepared on ice to 200 μl in water, and the reaction mixture obtained was maintained at 30° C. for 20 minutes.” left out

Row | Molecule | product biosynthesized from apigenin 7-glucoside [1] | product biosynthesized from apigenin [1] | product biosynthesized from apigenin 4′-glucoside [1] | reactivity to various flavonoid compounds and betanidine [2] | HPLC peaks after reaction of crude enzyme with apigenin [3] | product biosynthesized from apigenin 7-glucoside ([4]; substrate 500 ng/μg apigenin 7-glucoside, same condition) | product biosynthesized from apigenin ([4]; substrate 500 ng/μg apigenin, UDP-glucose, 30° C., 90 minutes)
1 | NmGT4: Nemophila glycosyltransferase (SEQ ID NO: 4, cDNA SEQ ID NO: 3) expressed in Escherichia coli, His-Tag purified (protein, listed as Nemophila menziesii, His-tag) MAAQLHVVFFPFMAQGHLIPTLEMVKLFSSRGLKTTIVTTKFYAPAVTKSIEKTKHTGNQINIIIIKFPSAEVGLPEGSESLDKLKSPDMFMKFFKALSLLQEPFEQILQELSPDCIVSDMFFPWTTASAAKFDIPRFVFHGLSLFALCVSENMRFYKPFKNLGSESLDSEPVMLPDFPNQIEFSKVQVPEFEVGESKNEIMELLNQVKESEVKSYGIIINSFNELEKDYVDYYRNVWGRRAWLLGPLSLSNRDDEVKDQTDEHGSLKWLDSKKPDSVIYVCFGSVAPLSSSQLHEIALGLESSGQQFIWVVKEREDGEKWLPEGFEERIKDKGLIIRGWAPQVSILEHESTGGFVTHCGWNSVLEAVSAGVVMATLPTFAEQPFNEKLLTKVLKIGIPIGSPLSNRGKSGVKKEEIAEAMKGIMEGEEALEMRIRAKSLKEMAWKAVEEGGSSYNDLTSLIDGVKAYRSQSNKI | a flavone exhibiting the same retention time and the same absorption maximum as the purified apigenin 4′,7-diglucoside product was biosynthesized | a flavone exhibiting the same retention time and the same absorption maximum as the purified apigenin 4′,7-diglucoside product had been biosynthesized | a flavone exhibiting the same retention time and the same absorption maximum as the apigenin 4′,7-diglucoside purified product was biosynthesized | found to have an activity for not only apigenin and its glycosides but for luteolin and its glycosides and flavonol and its glycosides | peaks other than that of the substrate were observed |  | 
2 | SuGT5: Salvia uliginosa glycosyltransferase (SEQ ID NO: 13, cDNA SEQ ID NO: 12) expressed in Escherichia coli, His-Tag purified (protein, listed as Salvia uliginousa, His-tag) MKQLHIALFPSMAHGHMIPMFELAKLFTSRGLKATIIATPAFAAPITKAQQSGLDVGLAITPFPPKGSSLPQNIIAFDQMTNPDLTTSFLRAMELLQEPVEAILQELHPDCLVSDMFLPWTADSAAKFQIPRLAFYGTSYFSRCVSEQVGDKPFNNVTSDSEPVLVPGLPQQIKFVRSQFSPVLLEETQNDFAKLFKQMTEAWKKTYGEVVNSFNELESDYANHYKNVIGRKAWEIGPLLLCSSSKGGEKNQQRGKESAIDEHECLAWLDSKNPNSVVYVCAGSVASFSQAQLRETAMGLEASGQNFVWVVRKNKEDDDDWLPVGFEERVGNRGLIIRGWAPQVMILNHAAVGAFVTHCGWNSTLEGVCAGLPMVTWPVFAEQFFNEKLVTEVLGTGVSVGNKRWMLRESEGVERDAVARAVEEIMVGGGAEEMRSRAENYKEMAKKAVEEGGSSYNNLNALIEELSNYVAPTIQDKN |  |  |  | found to have an activity for not only apigenin and its glycosides but for luteolin and its glycosides and flavonol and its glycosides |  | a flavone exhibiting the same retention time and the same absorption maximum as the purified apigenin 4′,7-diglucoside product was biosynthesized | a flavone exhibiting the same retention time and the same absorption maximum as the purified apigenin 4′,7-diglucoside product had been biosynthesized
3 | NmGT3: Nemophila glycosyltransferase (SEQ ID NO: 2, cDNA SEQ ID NO: 1) expressed in Escherichia coli, His-Tag purified (protein, listed as Nemophila menziesii, His-tag) MPSILSNSAHILLFPFPTSGHIIPILDLANQLLARGLTITILITPANLTLLSTQLIELDRLGSLHTLVLPFPNPPNPSETSLAARVHASSQLSNTIIQWFQSHTSPPVAIVSDFFLGWTNSLASQLGIPRLVFWPSGVQRSSLVDYIWQNDQLSDSDHQIQDNSVISFPDVPNSPAYPKWQACGLSTQYKKGDPSWEFFKNGVLANTQSWGAIYNSFRDLEGVYIDYIKKKMGHGRVWAVGPLLPANDASKRGGSCVMPIDDVMTWLDTKTNSDNSVVYVCFGSRVELTTEQLDSLAAALEISGVHFILCVKLHQEISKEYEDRVAGRGLIIRGWAPQVAILRHRAVGAFLTHCGWNSILEGIAAGVVMLTWPMGADQFTNANLLVDELKVAMKACEGGDSNVPNPAMLANVLAESINGGRAERERVTELCDAALKAVQSGNGSSAKDLDSLTNQLNGLKVKIN | a flavone exhibiting the same retention time and the same absorption maximum as the purified apigenin 4′,7-diglucoside product was biosynthesized | a flavone exhibiting the same retention time and the same absorption maximum as the purified apigenin 4′,7-diglucoside product had been biosynthesized | a flavone exhibiting the same retention time and the same absorption maximum as the apigenin 4′,7-diglucoside purified product was biosynthesized | found to have an activity for not only apigenin and its glycosides but for luteolin and its glycosides and flavonol and its glycosides | peaks other than that of the substrate were observed |  | 
